Data: patent US20050153872A1, “Methods and compositions for the treatment of infection” (priority 2004, published 2005)

Experiments:
[1] = tested on: ATCC 700671 PRSP (S. pneumoniae); experiment: In vivo protection effects of Ph-SP; parameters: species or system mice; conditions: for Death distribution in hours 24 h / Death distribution in hours 48 h / Death distribution in hours 72 h / Death distribution in hours 96 h / Death distribution in hours 120 h / Death distribution in hours 144 h / Death distribution in hours 168 h / Number of Death: 5 animals
Experimental: To assess the in vivo effect of Ph-SP, mice were injected with ATCC 700671 PRSP intraperitoneally, followed by intravenous injections of PH-SP or controls.
One hour after administration of the fatal dose of ATCC 700671 PRSP (10^5 CFU/ml), each mouse was injected through the tail vein with test agents at three dosages as described in Table 4.

[2] = tested on: S. pneumoniae BQIOC 31201 (non-resistant); conditions: Ph-SP 70,000 daltons vs penicillin 350 daltons
[3] = tested on: S. pneumoniae ATCC 700671 (Penicillin-resistant SP); conditions: 5 ug/ml

B1: Ph-SP: Colicin Ia linked to ComC pheromone of S. pneumoniae (protein)
chain: SDPVARGITNPGAESLGYDSDGHEIMAVASPIYVASNPPRVASPVFHGTPPAWSSFGNKTIWGGNEWVASPDSPTRSDIEKRDKEITAYKNTLSAQQKENENKRTEAGKRLSAAIAAREKDENTLKTLRAGNADAADITRQEFRLLQAELREYGFRTEIAGYDALRLHTESRMLFADADSLRISPREARSLIEQAEKRQKDAQNADKKAADMLAEYERRKGILDTRLSELEKNGGAALAVLDAQQARLLGQQTRNDRAISEARNKLSSVTESLNTARNALTRAEQQLTQQKNTPDGKTIVSPEKFPGRSSTNHSIVVSGDPRFAGTIKITTSAVIDNRANLNYLLSHSGLDYKRNILNDRNPVVTEDVEGDKKIYNAEVALAEWDKLRQRLLDARNKITSAESAVASNSARNNLSARTNEQKHANDALNALLKEKENIRNQLSGINQKIAEEKRKQDELKATKDAINFTTEFLKSVSEKYGAKAEQLAREMAGQAKGKKIRNVEEALKTYEKYRADINKKINAKDRAAIAAALESVKLSDISSNLNRFSRGLGYAGKFTSLADWITEFGKAVARGTENWRPLFVKTETIIAGNAATALVALALVFSILTGSALGIIGYGLLMAVTGALIDESLVEKANKFWGIEMRLSKFFRDFILQRKK
modifications: colicin Ia attached to streptococcus pneumoniae polypeptide pheromone
- Death distribution in hours 24 h ([1]; 5 mg/kg tail vein): 0
- Death distribution in hours 48 h ([1]; 5 mg/kg tail vein): 1
- Death distribution in hours 72 h ([1]; 5 mg/kg tail vein): 0
- Death distribution in hours 96 h ([1]; 5 mg/kg tail vein): 0
- Death distribution in hours 120 h ([1]; 5 mg/kg tail vein): 0
- Death distribution in hours 144 h ([1]; 5 mg/kg tail vein): 0
- Death distribution in hours 168 h ([1]; 5 mg/kg tail vein): 0
- Number of Death ([1]; 5 mg/kg tail vein): 1
- Death distribution in hours 24 h ([1]; 10 mg/kg tail vein): 0
- Death distribution in hours 48 h ([1]; 10 mg/kg tail vein): 0
- Death distribution in hours 72 h ([1]; 10 mg/kg tail vein): 0
- Death distribution in hours 96 h ([1]; 10 mg/kg tail vein): 0
- Death distribution in hours 120 h ([1]; 10 mg/kg tail vein): 0
- Death distribution in hours 144 h ([1]; 10 mg/kg tail vein): 0
- Death distribution in hours 168 h ([1]; 10 mg/kg tail vein): 0
- Number of Death ([1]; 10 mg/kg tail vein): 0
- protection against infection in mice ([1]; ATCC 700671 PRSP i.p., agent i.v.): prevents streptococcus pneumoniae infection in mice
- bactericidal effect relative to penicillin on a molar basis [2]: two hundred fold greater
- inhibition of cell growth [3]: more than 90%
